The target of assay [1] is His-NtCDC48 recombinant protein (Nicotiana tabacum). In words: SDS-PAGE and immunoblot.
In assay [2] the target is NtCDC48, endogenous (Nicotiana tabacum (endogenous in cv. Xanthi cell suspensions)). The assay can be described thus: SDS-PAGE and immunoblot.
Assay [3] deals with CFP-NtCDC48 (Nicotiana tabacum). The assay can be described thus: FRET or BRET.
In assay [4] the target is cytosolic ascorbate peroxidase (cAPX), endogenous (Nicotiana tabacum (endogenous in cv. Xanthi cell suspensions)). In words: native gel or EMSA. Background: In EMSA bound probe runs differently from free probe, usually more slowly.

Stoichiometry N and CFP donor fluorescence lifetime with the acceptor (2.97 ns for the donor alone) data for four substances are collected here from publication PMC6506776.

“His-NtCDC48 recombinant protein (natural protein)”: in assay [1], the stoichiometry N came out at 6.
As for NtCDC48, endogenous (natural protein), in assay [2], the stoichiometry N was found to be 6.
For cAPX-YFP (enzyme), in assay [3], the CFP donor fluorescence lifetime with the acceptor (2.97 ns for the donor alone) was found to be 2.41 ns.
For “cytosolic ascorbate peroxidase (cAPX), endogenous (enzyme)”, the stoichiometry N in assay [4] is 2.

By stoichiometry N is commonly meant a count of units in the complex or per binding partner.
